Assay [1] addresses T1, pKal catalytic domain Mutant 1 (human, UniProt P03952 391-638, limits assumed).
T1 construct: catalytic domain with His tag from Pichia pastoris
In words: Ki,app, enzyme inhibition.

The target of assay [2] is T2, pKal catalytic domain Mutant 2 (human, UniProt P03952 391-638, limits assumed).
T2 construct: catalytic domain with His tag from Pichia pastoris
In words: Ki,app, enzyme inhibition.

The target in assay [3] is pKal catalytic domain Mutant 4 (human, UniProt P03952 391-638). In words: Ki,app, enzyme inhibition.
Assay [4] concerns the target T3, human plasma kallikrein (active form) (human, UniProt P03952 20-390; P03952 391-638).
T3 construct: two disulfide linked chains; biotinylated in the ELISA; also called pKal; hpKal
In words: ELISA, biotinylated pKal / streptavidin background. The text has this:
Abbreviations used: "T/B" is the ELISA signal obtained using of the "target" (biotinylated plasma kallikrein) divided by the ELISA signal of the "background" (streptavidin); both of which were coated on microtiter plates. "nd" is not determined. The symbol "q" refers to the amber suppressible stop codon (TAG), which is translated as glutamine (Q) in strains of E. coli such as the TG1 cells that were used to express the Fab fragments.
(ELISA stands for enzyme-linked immunosorbent assay.)

The source of these data is patent US8816055 (DYAX, dated 2014).

T2 sequence (P03952 other isoform, or with tags, fused parts or gaps mutant limits assumed): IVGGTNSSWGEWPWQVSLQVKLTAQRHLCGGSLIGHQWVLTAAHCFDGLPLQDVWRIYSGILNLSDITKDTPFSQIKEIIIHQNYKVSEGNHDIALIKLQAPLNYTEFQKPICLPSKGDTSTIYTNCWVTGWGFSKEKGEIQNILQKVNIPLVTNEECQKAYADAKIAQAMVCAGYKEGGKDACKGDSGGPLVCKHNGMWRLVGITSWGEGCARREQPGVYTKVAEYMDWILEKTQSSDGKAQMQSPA
T1 sequence (P03952 other isoform, or with tags, fused parts or gaps mutant limits assumed): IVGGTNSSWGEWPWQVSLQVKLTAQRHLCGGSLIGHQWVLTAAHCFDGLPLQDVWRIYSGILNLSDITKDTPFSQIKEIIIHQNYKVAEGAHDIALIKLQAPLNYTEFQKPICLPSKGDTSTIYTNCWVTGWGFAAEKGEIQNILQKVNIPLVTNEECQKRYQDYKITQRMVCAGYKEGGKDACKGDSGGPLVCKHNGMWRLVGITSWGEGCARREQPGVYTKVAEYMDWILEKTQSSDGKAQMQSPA
Sequence of pKal catalytic domain Mutant 4 (P03952 other isoform, or with tags, fused parts or gaps mutant): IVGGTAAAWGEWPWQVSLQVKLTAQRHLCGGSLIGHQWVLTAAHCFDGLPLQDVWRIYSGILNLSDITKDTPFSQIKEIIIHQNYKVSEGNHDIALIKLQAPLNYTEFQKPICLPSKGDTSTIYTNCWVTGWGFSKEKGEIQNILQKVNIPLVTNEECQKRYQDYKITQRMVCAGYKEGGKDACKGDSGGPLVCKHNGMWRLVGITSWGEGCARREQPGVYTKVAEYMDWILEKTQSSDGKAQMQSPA
T3 sequence (P03952 20-390, chain 1 of 2): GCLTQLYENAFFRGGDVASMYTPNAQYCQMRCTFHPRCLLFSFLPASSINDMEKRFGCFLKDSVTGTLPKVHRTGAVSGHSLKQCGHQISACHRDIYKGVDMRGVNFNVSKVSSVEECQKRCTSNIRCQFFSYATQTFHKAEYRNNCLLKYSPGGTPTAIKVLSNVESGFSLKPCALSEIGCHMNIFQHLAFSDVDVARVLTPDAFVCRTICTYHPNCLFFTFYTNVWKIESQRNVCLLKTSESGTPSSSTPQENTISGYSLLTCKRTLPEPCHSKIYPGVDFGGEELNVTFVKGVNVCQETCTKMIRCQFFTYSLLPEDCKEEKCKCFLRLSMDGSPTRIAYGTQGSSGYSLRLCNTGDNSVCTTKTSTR
T3 sequence (P03952 391-638, chain 2 of 2): as the sequence (P03952 other isoform, or with tags, fused parts or gaps mutant) above, with A6N, A7S, A8S counted along it

B1: M145-D11 (Fab, V domains shown)
VH: EVQLLESGGGLVQPGGSLRLSCAASGFTFSHYRMSWVRQAPGKGLEWVSSIYPSGGRTVYADSVKGRFTISRDNSKNTLYLQMNSLRAEDTAVYYCAKDKFEWRLLFRGIGNDAFDIWGQGTMVTVSS
VL: QSVLTQPPSVSVSPGQTASITCSGDKLGDKYTSWYQQRPGQSPVLVIYQDIKRPSGIPERFSGSNSGNTATLTISGTQAMDEADYYCQAWDSPNARVFGSGTKVTVL
notes: also called 559A-M145-D11 (sFab); 559A-M0145-D11
For the molecule B1, the Ki in assay [1] came out at 0.23 nM; in assay [2] it was 0.1 nM; in assay [3], 0.21 nM.

B2: X101-A01 (antibody, V domains shown)
VH: EVQLLESGGGLVQPGGSLRLSCAASGFTFSHYLMTWVRQAPGKGLEWVSYISPSGGHTIYADSVKGRFTISRDNSKNTLYLQMNSLRAEDTAVYYCARVARGIAARSRTSYFDYWGQGTLVTVSS
VL: EIVLTQSPGTLSLSPGERATLSCRTSQFVNSNYLAWYQQKPGQAPRLLIYGASSRATGIPDRFSGSGSGTDFTLTISRLEPEDFAVYYCQQSSRTPWTFGQGTKVEIK
notes: also called 559A-X0101-A01
Consider B2, for which the Ki in assay [1] is 14 nM; in assay [2], 20 nM; in assay [3], 0.25 nM.

B3: X115-B07 (antibody, V domains shown)
VH: EVQLLESGGGLVQPGGSLRLSCAASGFTFSHYLMTWVRQAPGKGLEWVSYISPSGGHTIYADSVKGRFTISRDNSKNTLYLQMNSLRAEDTAVYYCAMVGQGIRGRSRTSYFAQWGQGTLVTVSS
VL: EIVLTQSPGTLSLSPGERATLSCRTSQFVNSNYLAWYQQKPGQAPRLLIYGASSRATGIPDRFSGSGSGTDFTLTISRLEPEDFAVYYCQQSSRTPWTFGQGTKVEIK
notes: also called 559A-X115-B07; 559A-X0115-B07
Consider B3, for which the Ki in assay [1] was found to be 4.7 nM; in assay [2], 47 nM; in assay [3], 0.14 nM.

B4: X115-F02 (Fab, V domains shown)
VH: EVQLLESGGGLVQPGGSLRLSCAASGFTFSHYIMMWVRQAPGKGLEWVSGIYSSGGITVYADSVKGRFTISRDNSKNTLYLQMNSLRAEDTAVYYCAYRRIGVPRRDEFDIWGQGTMVTVSS
VL: DIQMTQSPSTLSASVGDRVTITCRASQSISSWLAWYQQKPGKAPKLLIYKASTLESGVPSRFSGSGSGTEFTLTISSLQPDDFATYYCQQYNTYWTFGQGTKVEIK
notes: also called 559A-X115-F02; 559A-X0115-F02
For the molecule B4, the Ki in assay [1] was 0.14 nM; in assay [2] it was 5.9 nM; in assay [3], 0.1 nM.

B5: X115-G04 (antibody, V domains shown)
VH: EVQLLESGGGLVQPGGSLRLSCAASGFTFSHYIMMWVRQAPGKGLEWVSGIYSSGGITVYADSVKGRFTISRDNSKNTLYLQMNSLRAEDTAVYYCAYRRTGVPRRDEFDIWGQGTMVTVSS
VL: DIQMTQSPSTLSASVGDRVTITCRASQSISSWLAWYQQKPGKAPKLLIYKASTLESGVPSRFSGSGSGTEFTLTISSLQPDDFATYYCQQYNTYWTFGQGTKVEIK
notes: also called 559A-X115-G04; 559A-X0115-G04
Regarding B5, the Ki was found to be 0.4 nM in assay [1], 2.2 nM in assay [2] and 0.3 nM in assay [3].

B6: X115-A03 (antibody, V domains shown)
VH: EVQLLESGGGLVQPGGSLRLSCAASGFTFSHYIMMWVRQAPGKGLEWVSGIYSSGGITVYADSVKGRFTISRDNSKNTLYLQMNSLRAEDTAVYYCAWRRIGVPRRDSFDMWGQGTMVTVSS
VL: DIQMTQSPSTLSASVGDRVTITCRASQSISSWLAWYQQKPGKAPKLLIYKASTLESGVPSRFSGSGSGTEFTLTISSLQPDDFATYYCQQYNTYWTFGQGTKVEIK
notes: also called 559A-X115-A03; 559A-X0115-A03
In the case of B6, the Ki in assay [1] was 0.23 nM; in assay [2], 3.7 nM; in assay [3], 0.13 nM.

B7: X115-D01 (antibody, V domains shown)
VH: EVQLLESGGGLVQPGGSLRLSCAASGFTFSIYSMHWVRQAPGKGLEWVSSIYPSRGMTWYADSVKGRFTISRDNSKNTLYLQMNSLRAEDTAVYYCAYRRTGIPRRDAFDIWGQGTMVTVSS
VL: DIQMTQSPSTLSASVGDRVTITCRASQSISSWLAWYQQKPGKAPKLLIYKASTLESGVPSRFSGSGSGTEFTLTISSLQPDDFATYYCQQYNTYWTFGQGTKVEIK
notes: also called 559A-X115-D01; 559A-X0115-D01
On to B7, for which the Ki in assay [1] was determined as 0.26 nM; in assay [2], 2.5 nM; in assay [3], 0.12 nM.

B8: M6-D09 (Fab, V domains shown)
VH: EVQLLESGGGLVQPGGSLRLSCAASGFTFSFYYMVWVRQAPGKGLEWVSVIYPSGGITVYADSVKGRFTISRDNSKNTLYLQMNSLRAEDTAVYYCARDKWAVMPPYYYYAMDVWGQGTTVTVSS
VL: DIQMTQSPSSLSASVGDRVTITCRASQSIRNYLNWYQQKPGKAPNLLIYAASTLQSGVPARFSGSGSGTDFTLTISSLQPEDFATYYCQQLSGYPHTFGQGTKLEIK
notes: also called M06-D09; 559A-M06-D09
In the case of B8, the Ki in assay [1] was found to be 3.4 nM; in assay [2], 13.5 nM; in assay [3], 2.9 nM.

B9: M29-D09 (Fab, V domains shown)
VH: EVQLLESGGGLVQPGGSLRLSCAASGFTFSWYTMVWVRQAPGKGLEWVSYIYPSGGATFYADSVKGRFTISRDNSKNTLYLQMNSLRAEDTAVYYCAMGSYDYIWGFYSDHWGQGTLVTVSS
VL: QSALTQPPTVSVSPGQTARITCSGNKLGDKYVAWYQQKPGQSPMLVIYQDTKRPSRVSERFSGSNSANTATLSISGTQALDEADYYCQAWDSSIVIFGGGTRLTVL
notes: also called 559A-M29-D09 (sFab); 559A-M0029-D09
B9: the Ki in assay [1] was determined as 0.27 nM; in assay [2] it was 0.34 nM; in assay [3], 0.39 nM.

B10: M35-G04 (Fab, V domains shown)
VH: EVQLLESGGGLVQPGGSLRLSCAASGFTFSYYHMSWVRQAPGKGLEWVSVISPSGGSTKYADSVKGRFTISRDNSKNTLYLQMNSLRAEDTAVYYCARGGSSDYAWGSYRRPYYFDYWGQGTLVTVSS
VL: DIQMTQSPATLSLSPGERATLSCRASQSVSSYLAWYQQKPGQAPRLLIYDASNRATGIPARFSGSGSGTDFTLTISSLEPEDFAVYYCQQRSNWPRGFTFGPGTKVDIK
notes: also called 559A-M35-G04; 559A-M0035-G04
With B10, the Ki in assay [1] is 0.09 nM; in assay [2], 1.1 nM; in assay [3], 0.8 nM.

B11: M28-D02 (Fab, V domains shown)
VH: EVQLLESGGGLVQPGGSLRLSCAASGFTFSWYPMQWVRQAPGKGLEWVSYIYPSGGGTDYADSVKGRFTISRDNSKNTLYLQMNSLRAEDTATYYCATSSGWLGDAFDIWGQGTMVTVSS
VL: DIQMTQSPSSLSASEGDMVTITCRTSRRIGTYLNWYQQKPGKAPKLLIYGASSLQSGVPSRFSGSGSGTDFTLTVSSLQPEDVGTYYCQQSFSSPWTFGPGTKVEIK
On to B11, for which the “ELISA (T/B)” value in assay [4] turned out to be 3.7 T/B.
